According to paper PMC5698293, “Single-molecule visualization of conformational changes and substrate transport in the vitamin B12 ABC importer BtuCD-F” (Nature Communications, 2017):

Assays:
[1] = molecular target: T1, BtuCD-F (BtuCD with BtuF D141C), ATPase site (Escherichia coli, UniProt P06611, C180S); settings: 2 mM ATP, 10 mM MgCl2, pH 7.5, 30 °C; BtuCD WT with BtuF D141C
T1 construct: gene btuD

[2] = molecular target: BtuCDcys (cysteine mutant of the vitamin B12 ABC importer BtuCD: BtuC Q111C/W115L, cys-less BtuC and BtuD), reconstituted in liposomes (Escherichia coli) (UniProt P06609); assay: single-molecule fluorescence intensity change (TIRF microscopy); BtuCDcys labelled with Alexa Fluor 555 in 100-nm proteoliposomes (empty lumen, no ATP) tethered to glass by biotin-streptavidin; unlabelled BtuF added to the outside; 50 mM KPi, 200 mM KCl, pH 7.5; room temperature
[3] = molecular target: BtuCDcys (cysteine mutant of the vitamin B12 ABC importer BtuCD: BtuC Q111C/W115L, cys-less BtuC and BtuD), reconstituted in liposomes (Escherichia coli) (UniProt P06609)

percent of right-side-out complexes with an increase in fluorescence upon addition of BtuF [2] [%]	percent of traces with an increase in fluorescence upon addition of BtuF [2] [%]	fraction of inside-out complexes that respond to ATP by a decrease of the Alexa Fluor 555 fluorescence of BtuCDcys (corrected for orientation; unlabelled BtuF in the lumen) [3] [%]	fraction of liposomes in which the Alexa Fluor 555 fluorescence of BtuCDcys decreased upon addition of 2 mM ATP and 10 mM Mg2+ on the outside (unlabelled BtuF in the lumen; no events without BtuF) [3] [%]	Molecule	NADH-coupled PK/LDH ATPase assay in proteoliposomes [1]
				Nc1ncnc2c1ncn2[C@@H]1O[C@H](COP(=O)(O)OP(=O)(O)OP(=O)(O)O)[C@@H](O)[C@H]1O [ATP]	ATPase rate of various BtuCD-F mutants with or without fluorescent label reconstituted in liposomes
82	45	18	8	BtuF D141C (periplasmic vitamin B12-binding protein, cys-less, signal peptide removed) (from UniProt P37028 23-266) (natural protein)	
